A short description of this data set: yeast display, Sf9 membrane polyspecificity reagent, FACS + sequencing; frameworks hold sequencing errors. Summed up:
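After 36–48 hours of galactose induction, yeast (Saccharomyces cerevisiae BJ5465) displaying a synthetic nanobody library were stained at 4 °C for 1 hour with 10% biotinylated, detergent-solubilized Sf9 membrane reagent. Streptavidin microbeads enriched the stained cells before FACS sorting into low and high (top ~1%) gates on anti-HA and streptavidin fluorescence. Each clone's polyreactivity label reflects its gate of origin.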
Turning to “QVQLVESGGGLVQAGGSLRLSCAASGRTFVYNAMGWYRQAPGKERELVAAITRNGGSTYYADSVKGRFTISRDNAKNTVYLQMNSLKPEDTAVYYCNRDVRYVGRSGFDYWGQGTQVTVSS”, the “polyreactivity (PSR sort gate)” value is given as “high polyreactivity”.

In the case of “QVQLVESGGGLVQAGGSLRLSCAASGRTFVYNAMGWYRQAPGKERELVAAITSGGSTYYADSVKGRFTMSRDNAKNTVYLQMNSLKPEDTAVYYCDGYKRGYYWGQGTQVTVSS”, the “polyreactivity (PSR sort gate)” value is “high polyreactivity”.

On to “QVQLVESGGGLVQAGGSLRLSCAASGRTFVYYAMGWYRQAPGKERELVAAITSGGSTNYADSVKGRFTISRDNAKNTVYLQMNSLKPEDTAVYYCNAYGVSWFYYTWKYDYWGQGTQVTVSS”, for which the “polyreactivity (PSR sort gate)” value is reported as “low polyreactivity”.

Regarding “QVQLVESGGGLVQAGGSLRLSCAASGRTFVYYAMGWYRQAPGKERELVATISTTGGRTYYADSVKGRFTISRDNAKNTVYLQMNSLKPEDTAVYYCAADLYGAYGYWGQGTQVTVSS”, the “polyreactivity (PSR sort gate)” value was “low polyreactivity”.

For “QVQLVESGGGLVQAGGSLRLSCAASGRTFVYYAMGWYRQAPGKERELVATITRGGRTNYADSVKGRFTISRDNAKNTVYLQMNSLKPEDTAVYYCNARYSWWRSRVGSSHRPDGYWGQGTQVTVSS”, the “polyreactivity (PSR sort gate)” value was “high polyreactivity”.

Regarding “QVQLVESGGGLVQAGGSLRLSCAASGRTFWANAMGWYRQAPGKERELVAAITIDGRTSYADSVKGRFTISRDNAKNTVYLQMNSLKPEDTAVYYCATEPFYTYGYYTYPYWYDYWGQGTQVTVSS”, the “polyreactivity (PSR sort gate)” value is “low polyreactivity”.

In the case of “QVQLVESGGGLVQAGGSLRLSCAASGRTFWDYAMGWYIQAPGKEREFVAAINTSGGRTYYADSVKGRFTISRDNAKNTVYLQMNSLKPEDTAVYYCAARTRDRAYDSWGQGTQVTVSS”, the “polyreactivity (PSR sort gate)” value is on record as “high polyreactivity”.

As to “QVQLVESGGGLVQAGGSLRLSCAASGRTFWFNAMGWYRQAPGKARELVAAISGITGSTYYADSVKGRITISRDNAKNTVYLQMNSLKPEATAVYYCATNRRGTWDYDYWGQGTQVTVSS”, the “polyreactivity (PSR sort gate)” value was “low polyreactivity”.

Consider “QVQLVESGGGLVQAGGSLRLSCAASGRTFWFYAMGWYRQAPGKERELVATINYRGGTTYYADSVKGRFTISRDNAKNTVYLQMNSLKPEDTAVYYCAVRPTRTFIYVYWGQGTEVTVSS”, for which the “polyreactivity (PSR sort gate)” value was “high polyreactivity”.

As for “QVQLVESGGGLVQAGGSLRLSCAASGRTFWGITMGWYRQAPGKERELVASITYSGGRTYYADSVKGRFTISRDNAKNTVYLQMNSLKPEDTAVYYCAATLYRYRYFGYDYWGQGTQVTVSS”, the “polyreactivity (PSR sort gate)” value was “high polyreactivity”.

For the sequence “QVQLVESGGGLVQAGGSLRLSCAASGRTFWIYAMGWYRQAPGKERELVAGISRSGGSTNYADSVKGRFTISRDNAKNTVYLQMNSLKPEDTAVYYCNTDPYSSAWYNYDYWGQGTQVTVSS”, the “polyreactivity (PSR sort gate)” value was “low polyreactivity”.

In the case of “QVQLVESGGGLVQAGGSLRLSCAASGRTFWKNTMGWSRQAPGKERELVAVISSGGVSTSYADSVKGRFTISRDNAKNTVYLQMNSLKPEDTAVYYCAADGYYIGPYDYWGQGTQVTVSS”, the “polyreactivity (PSR sort gate)” value is listed as “low polyreactivity”.

“QVQLVESGGGLVQAGGSLRLSCAASGRTFWNYAMGWYRQAPGKERDLVAVIRFSDGSTYYAYSVKGRFTISRDNAKNTVYLHMNSLKPEDTAVYYCAAKGPRRWGSGFDYWGQGTQVTVSS”: the “polyreactivity (PSR sort gate)” value is “low polyreactivity”.

Consider “QVQLVESGGGLVQAGGSLRLSCAASGRTFWPYVMGWYRQAPGKERELVASITRSGGTTNYADSVKGRFTISRDNAKNTVYLQMNSLKPEDTAVYYCNARTVYSWSREYNYWGQGTQVTVSS”, for which the “polyreactivity (PSR sort gate)” value is given as “high polyreactivity”.

Take “QVQLVESGGGLVQAGGSLRLSCAASGRTFWRNAMGWYRQAPWKERELVAAISRSGDSTRYADSVKGRFTISRDNAKYSVYLQRTSLKPEATAVYYCNKLGTGVYEMDYWGQGTKVTVSS”: the “polyreactivity (PSR sort gate)” value was “high polyreactivity”.

On to “QVQLVESGGGLVQAGGSLRLSCAASGRTFWRYAMGWDRQAPGKERELVAGITNSGGNTYYADSVKGRFTISRDNAKNTVYLQMNSLKPEDTAVYYCAARSGRFKYSSWSRGPTYDYWGQGTQVTVSS”, for which the “polyreactivity (PSR sort gate)” value was “low polyreactivity”.

On to “QVQLVESGGGLVQAGGSLRLSCAASGRTFWSYAMGWYRQAPGKEREFVAAISRRGGITYYADSVKGRFTISRDNAKNTVYLQMNSLKPEDTAVYYCAKGAQSYYGGQVKYDYWGQGTQVTVSS”, for which the “polyreactivity (PSR sort gate)” value is “high polyreactivity”.

For the sequence “QVQLVESGGGLVQAGGSLRLSCAASGRTFWTYTMGWYRQAPGKEREFVAAITFGDGSTSYADSVKGRFTISRDNAKNTVYLQMNSLKPEDTAVYSCAKRWRRRFVDVWSLYDYWGQGTQVTVSS”, the “polyreactivity (PSR sort gate)” value is “low polyreactivity”.

Take “QVQLVESGGGLVQAGGSLRLSCAASGRTFWWYTMGWYRQAPGKERELVAVISSTGGRTYYADSVKGRFTISRDNAKNTVYLQMNSLKPEDTSVYYCAAEYVSAKWEYGYWGQGTQVTVSS”: the “polyreactivity (PSR sort gate)” value was “low polyreactivity”.

Regarding “QVQLVESGGGLVQAGGSLRLSCAASGRTFWYNAMGWYRQAPGKERELVAAISSSGGTTYYADSVKGRFTISRDNAKNTVYLQMNSLIPEDTAVYYCARQRRSVNVYKNIYKYWGQGTQVNVSS”, the “polyreactivity (PSR sort gate)” value is listed as “high polyreactivity”.

Turning to “QVQLVESGGGLVQAGGSLRLSCAASGRTFWYYAMGWYRPAPGKERELVAGIRSGGSTYYADSVKGRFTISRDNAKNTVYLQMNSLKPEDTAVYYCATDYYYSNAKYDYWGQGTQVTVSS”, the “polyreactivity (PSR sort gate)” value is on record as “high polyreactivity”.

With “QVQLVESGGGLVQAGGSLRLSCAASGRTFWYYAMGWYRQAPGKERELVASISRSGGSTYYADSVKGRFTISRDNAKNTVYLQMNSLKPEDTAVYYCARGSELGYYAWVYYWGQGTQVTVSS”, the “polyreactivity (PSR sort gate)” value is given as “high polyreactivity”.

Turning to “QVQLVESGGGLVQAGGSLRLSCAASGRTFWYYAMGWYRQAPGKERELVAVINSSGGRTYYADSVKGRFTISRDNAKNTVYLQMNSLKPEDTAVYYCAAYRGVPSRYDYWGQGTQVTVSS”, the “polyreactivity (PSR sort gate)” value was “high polyreactivity”.

Turning to “QVQLVESGGGLVQAGGSLRLSCAASGRTFWYYDMGWSRQAPGKERELVAAISRSGGSTYYADSVKGRFTISRDNAKNTVYLQMNSLKPEDTAVYFCAAVSYGYWVTEYYYWGQGSQVTVSS”, the “polyreactivity (PSR sort gate)” value is listed as “high polyreactivity”.

As to “QVQLVESGGGLVQAGGSLRLSCAASGRTFWYYEMGWYRQAPGKERELVATINNVGSTHYADSVKGRFTISRDNAKNTVYLQMNSLKPEDTAVYYCGRASYGKMDYWGQGTQVTVSS”, the “polyreactivity (PSR sort gate)” value was “high polyreactivity”.

For “QVQLVESGGGLVQAGGSLRLSCAASGRTFWYYTMGWYRQAPGKERELVAAISRSGGSTYYADSVKGRFTISRDNAKNTVYLQMNSLKPEDSAVYFCAAGVQSSVYPYYRFDYWGQGTQVTVSS”, the “polyreactivity (PSR sort gate)” value is reported as “high polyreactivity”.

As to “QVQLVESGGGLVQAGGSLRLSCAASGRTFWYYTMGWYRQAPGKERELVAAITRRGGSTYYADSVKGRFTISRDNAKNTVYLQMNSLKPEDTAVYYCARGGSRLTQGWLVTPYDYDYWGQGTQVTVSS”, the “polyreactivity (PSR sort gate)” value is “high polyreactivity”.

Turning to “QVQLVESGGGLVQAGGSLRLSCAASGRTFYANAMGWYRQAPGKERELVAGISYSGGNTYYADSVKGRFTISRDNAKNTVYLQMNRLKPEYTAVYYCAAATDWEYWTYEYWRQGTQVTVSS”, the “polyreactivity (PSR sort gate)” value is listed as “low polyreactivity”.

For “QVQLVESGGGLVQAGGSLRLSCAASGRTFYANDMGWYRQAPGKERELVAAISSSVTSTHYADSVKGRFTISRDNAKNTVYLQMNSLKPEDTAVYYCNKDPIREVPPPGPSEMDYWGQGTQVTVSS”, the “polyreactivity (PSR sort gate)” value is listed as “low polyreactivity”.

In the case of “QVQLVESGGGLVQAGGSLRLSCAASGRTFYAYVMGWYRQAPGKERELVAAISGGGRTYYADSVKGRFTISRDNAKNTVYLQMNSLKPEDTAVYYCAAVSLWYSAYEYWGQGTQVTVSS”, the “polyreactivity (PSR sort gate)” value is recorded as “high polyreactivity”.

The values are drawn from the nanobody polyreactivity screen of Harvey et al. (2022).
